From paper PMC3032569 (The Biochemical journal, 2009)
Where no end group is shown, it is not given here.

Biological target: T1, E. coli TonB C-terminal domain (TonB CTD, residues 103-239) (E. coli, UniProt P02929 103-239)
T1 sequence (looked up): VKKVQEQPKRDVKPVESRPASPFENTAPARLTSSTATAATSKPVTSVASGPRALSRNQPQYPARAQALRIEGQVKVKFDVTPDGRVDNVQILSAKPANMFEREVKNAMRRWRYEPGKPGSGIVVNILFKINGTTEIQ
Assay: NMR titration

Ac-EDTITVTAAP [FhuA TonB box peptide]: binds.
